Source: publication PMC9606073 (Immunity, 2022)

How the values were obtained:
Conditions in all cases: both partners purified
SARS-CoV-2 WA1 RBD [1] = molecular target: SARS-CoV-2 WA1 RBD (SARS-CoV-2 USA-WA1/2020 (MT246667.1)); test: SPR
Yun11-CoV RBD = molecular target: T1, Yun11-CoV RBD (Bat coronavirus Cp/Yunnan2011 (Yun11), UniProt R9QTH3); test: ELISA
T1 construct: source: Expi293F cells, transient transfection, purified (Ni-NTA, SEC)

SARS-CoV-2 WA1 RBD [2] = molecular target: SARS-CoV-2 WA1 RBD (SARS-CoV-2 USA-WA1/2020 (MT246667.1)); test: ELISA
Rf1-CoV RBD = molecular target: T2, Rf1-CoV RBD (Bat SARS CoV Rf1/2004, UniProt Q0QDZ0); test: ELISA
T2 construct: source: Expi293F cells, transient transfection, purified (Ni-NTA, SEC)

[3] = molecular target: SARS-CoV-2 RBD (residues 323-528) (SARS-CoV-2 WA1); test: crystal structure

B1: C118 IgG (antibody, V domains shown)
VH: QVQLVESGGGVVQPGRSLRLSCAASGFTFSNYAMHWVRQAPGKGLEWVAVISYDGSNKYYADSVKGRFTISRDNSKNTLYLQMNSLRAEDTAIYYCASGYTGYDYFVRGDYYGLDVWGQGTTVTVSS
VL: QPVLTQSPSASASLGASVKLTCTLSSGHSSYAIAWHQQQPEKGPRYLMKLNTDGSHSKGDGIPDRFSGSSSGAERYLTISSLQSEDEADYYCQTWGTGILVFGGGTKLTVL
notes: copies: 2 + 2
Work on B1 yielded a Kd (SARS-CoV-2 WA1 RBD [1]) of 0.19 nM, a koff (SARS-CoV-2 WA1 RBD [1]) of 3.5e-05 s⁻¹ and a kon (SARS-CoV-2 WA1 RBD [1]) of 180000 M⁻¹ s⁻¹.

B2: M8a-3 IgG (antibody, V domains shown)
VH: QVQLQQPGAELVLPGASVKLSCKASGYTFTNYWMHWVKQRPGHGLEWIGEIDPFDTYIKINQKFKGKSTLTVDTSSSTAYMQLSSLTSEDSAVYYCARPDSSGYPVYFDYWGQGTTLTVSS
VL: DIVMTQSHKFMSTSVGDRVSITCKASQDVGTYIAWYQQKPGQSPKLLIYWASTRHTGVPDRFTGSGSGTNYTLTISSVQAEDLALYHCQQHYSTPYTFGGGTKLEIK
notes: copies: 2 + 2
Work on B2 yielded a Kd (SARS-CoV-2 WA1 RBD [1]) of 0.86 nM, a koff (SARS-CoV-2 WA1 RBD [1]) of 0.00016 s⁻¹ and a kon (SARS-CoV-2 WA1 RBD [1]) of 190000 M⁻¹ s⁻¹.

B3: M8a-6 IgG (antibody, V domains shown)
VH: QVQLQQPGTELVMPGASVKLSCKTSGYTFTHYWMHWVKQRPGEGLEWIGEIAPSDNYVKYNQKFKGKSTLSVDRSSSTAYMQLSSLTSEDSAVYFCARPDNSGYPVYFDYWGQGTSLTVSS
VL: DIVMTQSQKFMSTSLGDRVSISCKASQDVGTTVAWYQQKPGQSPKLLIYWASTRHTGVPDRFTGTGSGTDYTLTISSVAAEDLALYYCQQHYNTPYTFGGGTKLEIE
notes: copies: 2 + 2
For B3, the Kd (SARS-CoV-2 WA1 RBD [1]) was 104 nM.

B4: M8a-34 IgG (antibody, V domains shown)
VH: QVQLQQPGAELVKPGASVKMSCKASGYTFITYWITWVKQRPGQGLEWIGDIYPGGGRTNYNEKFKSKATLTVDTSSSTAYMQLRSLTSEDSAVYYCARYDGNYVGYYYAMDYWGQGTSVTVSS
VL: DIVLTQSPVSLAVSLGQRATISCRASESVDFYGNSFIYWYQQKPGQAPKLLIYRASNLESGIPARFSGSGSRTDFTLTIHPVEADDVATYYCQQSIEDPRTFGGGTKLEIK
notes: copies: 2 + 2
B4: binds (Yun11-CoV RBD); binds (SARS-CoV-2 WA1 RBD [2]); binds (Rf1-CoV RBD).

B5: M8a-34 Fab (Fab, V domains shown)
VH: QVQLQQPGAELVKPGASVKMSCKASGYTFITYWITWVKQRPGQGLEWIGDIYPGGGRTNYNEKFKSKATLTVDTSSSTAYMQLRSLTSEDSAVYYCARYDGNYVGYYYAMDYWGQGTSVTVSS
VL: DIVLTQSPVSLAVSLGQRATISCRASESVDFYGNSFIYWYQQKPGQAPKLLIYRASNLESGIPARFSGSGSRTDFTLTIHPVEADDVATYYCQQSIEDPRTFGGGTKLEIK
B5: binds [3].

B6: HSW-2 Fab (Fab, V domains shown)
VH: QVQLQQSGPELVKPGASVKISCKASGYVFSTSWMSWVKQRPGEGPEWIGRIYPRDGHSSSTGKFKDKATLTADKSSNTAYIHLSSLTSEDSAVYFCARDYGYYYFDYWGQGTTLTVSS
VL: DIQMTQSPASLSASVGEAVTITCRLSENVYSFLAWYQQKQGKSPQLLVYRAKTLAEGVPSRFSGSGSGTQFSLKINSLQPEDFGTYYCQHHYGTPPTFGGGTKLEIK
B6: binds [3].

B7: M8a-6 Fab (Fab, V domains shown)
VH: QVQLQQPGTELVMPGASVKLSCKTSGYTFTHYWMHWVKQRPGEGLEWIGEIAPSDNYVKYNQKFKGKSTLSVDRSSSTAYMQLSSLTSEDSAVYFCARPDNSGYPVYFDYWGQGTSLTVSS
VL: DIVMTQSQKFMSTSLGDRVSISCKASQDVGTTVAWYQQKPGQSPKLLIYWASTRHTGVPDRFTGTGSGTDYTLTISSVAAEDLALYYCQQHYNTPYTFGGGTKLEIE
notes: source: Expi293 cells, transient transfection, purified (Ni-NTA, SEC)
B7: binds [3].

B8: M8a-28 IgG (antibody, V domains shown)
VH: QVQLQQPGAELVKPGASVKMSCKASGYNFNHYWISWVKQRPGQGLEWIGDIYPLSHFTTYNEKFTNRATLTVDTSSTTAYMQLNSLTSDDSAVFYCARWDYFDSRTFDYWGQGTTLTVSS
VL: DILLTQFPAILSVSPGERVSFSCRASQTIGTNIHWYQQRINGSPRLLIKYASESISGIPSRFSGSGSGTDFSLSINNVESEDIADYYCQQINSWPLTFGAGTKLDLK
notes: copies: 2 + 2
B8: binds (SARS-CoV-2 WA1 RBD [2]).

B9: M8a-31 IgG (antibody, V domains shown)
VH: EVQLKQSVAELVRPGASVKVSCTASGFNIKNIYMHWVKQRPEQGLDWIGRIDPANGNSRYAPKFQDKATITADTSSNTAYLQLSSLTSEDTAIYYCADEGWGFANWGQGTLVTVSA
VL: DIVMTQSPSSLTVTAGEKVTMSCKSSQSLLNSGNQKNYLTWYQQKVGQPPKLLIYWASTRDPGVPDRFTGSGFGTDFTLTISSVQAEDLAVYYCQNDYSYPLTFGAGTKVELK
notes: copies: 2 + 2
B9: binds (Yun11-CoV RBD); binds (SARS-CoV-2 WA1 RBD [2]); binds (Rf1-CoV RBD).

B10: HSW-1 IgG (antibody, V domains shown)
VH: QVQLQQPGAELVKPGTSMKLSCKASGYTFTSYWMHWVKQRPGQGLEWIGMIHPNSGSTKYNENFKSKATLTVDKSSSTAYMQFSSLTSEDSAVYYCVRSGSYYGTTYDYFDYWGQGTTLTVSS
VL: DIVLTQSPASLAVSLGQRATISCRASESVNIYGNSFMHWYQQKPGQPPKLLIFRASNLESGIPVRFSGSGSRTDFTLTINPVEADDVATYYCHQSNEDPFTFGSGTKLEIK
notes: copies: 2 + 2
B10: binds (SARS-CoV-2 WA1 RBD [2]).

B11: HSW-2 IgG (antibody, V domains shown)
VH: QVQLQQSGPELVKPGASVKISCKASGYVFSTSWMSWVKQRPGEGPEWIGRIYPRDGHSSSTGKFKDKATLTADKSSNTAYIHLSSLTSEDSAVYFCARDYGYYYFDYWGQGTTLTVSS
VL: DIQMTQSPASLSASVGEAVTITCRLSENVYSFLAWYQQKQGKSPQLLVYRAKTLAEGVPSRFSGSGSGTQFSLKINSLQPEDFGTYYCQHHYGTPPTFGGGTKLEIK
notes: copies: 2 + 2
B11: binds (SARS-CoV-2 WA1 RBD [2]).

B12: M8a-3 IgG (antibody, V domains shown)
VH: QVQLQQPGAELVLPGASVKLSCKASGYTFTNYWMHWVKQRPGHGLEWIGEIDPFDTYIKINQKFKGKSTLTVDTSSSTAYMQLSSLTSEDSAVYYCARPDSSGYPVYFDYWGQGTTLTVSS
VL: DIVMTQSHKFMSTSVGDRVSITCKASQDVGTYIAWYQQKPGQSPKLLIYWASTRHTGVPDRFTGSGSGTNYTLTISSVQAEDLALYHCQQHYSTPYTFGGGTKLEIK
notes: copies: 2 + 2
B12: binds (Yun11-CoV RBD).
